Experimental findings from US20150329594A1 (University of California, published 2015) are described below.

The chains are these.
B1: Peptide 3.2, Ac-NN-LCVWQDWGAHRCT-NH2 (peptide)
peptide: Ac-NNLCVWQDWGAHRCT-NH2
modifications: disulfide 4-14
SMILES: CC(=O)N[C@@H](CC(N)=O)C(=O)N[C@@H](CC(N)=O)C(=O)N[C@@H](CC(C)C)C(=O)N[C@H]1CSSC[C@@H](C(=O)N[C@H](C(N)=O)[C@@H](C)O)NC(=O)[C@H](CCCNC(=N)N)NC(=O)[C@H](Cc2c[nH]cn2)NC(=O)[C@H](C)NC(=O)CNC(=O)[C@H](Cc2c[nH]c3ccccc23)NC(=O)[C@H](CC(=O)O)NC(=O)[C@H](CCC(N)=O)NC(=O)[C@H](Cc2c[nH]c3ccccc23)NC(=O)[C@H](C(C)C)NC1=O
B2: Peptide 3.3, Ac-NR-LCVWQDWGAHRCT-NH2 (peptide)
peptide: Ac-NRLCVWQDWGAHRCT-NH2
modifications: disulfide 4-14
SMILES: CC(=O)N[C@@H](CC(N)=O)C(=O)N[C@@H](CCCNC(=N)N)C(=O)N[C@@H](CC(C)C)C(=O)N[C@H]1CSSC[C@@H](C(=O)N[C@H](C(N)=O)[C@@H](C)O)NC(=O)[C@H](CCCNC(=N)N)NC(=O)[C@H](Cc2c[nH]cn2)NC(=O)[C@H](C)NC(=O)CNC(=O)[C@H](Cc2c[nH]c3ccccc23)NC(=O)[C@H](CC(=O)O)NC(=O)[C@H](CCC(N)=O)NC(=O)[C@H](Cc2c[nH]c3ccccc23)NC(=O)[C@H](C(C)C)NC1=O
B3: Peptide 3.1, Ac-ER-ICVWQDWGAHRCT-NH2 (peptide)
peptide: Ac-ERICVWQDWGAHRCT-NH2
modifications: disulfide 4-14
SMILES: CC[C@H](C)[C@H](NC(=O)[C@H](CCCNC(=N)N)NC(=O)[C@H](CCC(=O)O)NC(C)=O)C(=O)N[C@H]1CSSC[C@@H](C(=O)N[C@H](C(N)=O)[C@@H](C)O)NC(=O)[C@H](CCCNC(=N)N)NC(=O)[C@H](Cc2c[nH]cn2)NC(=O)[C@H](C)NC(=O)CNC(=O)[C@H](Cc2c[nH]c3ccccc23)NC(=O)[C@H](CC(=O)O)NC(=O)[C@H](CCC(N)=O)NC(=O)[C@H](Cc2c[nH]c3ccccc23)NC(=O)[C@H](C(C)C)NC1=O

Bridge positions count the residues as written; N and C are the ends. Square brackets hold non-standard residues; d marks the D form. Nal = 1-naphthylalanine or 2-naphthylalanine; Trp(1-Me) = Cn1cc(C[C@H](N)C(=O)O)c2ccccc21; Aal = not defined here; Sea = not defined here

The target in the experiment is human complement protein C3 (human, UniProt P01024 23-1663). Put plainly: cell-based or functional assay.
Sequence of human complement protein C3 (P01024 23-1663 limits assumed): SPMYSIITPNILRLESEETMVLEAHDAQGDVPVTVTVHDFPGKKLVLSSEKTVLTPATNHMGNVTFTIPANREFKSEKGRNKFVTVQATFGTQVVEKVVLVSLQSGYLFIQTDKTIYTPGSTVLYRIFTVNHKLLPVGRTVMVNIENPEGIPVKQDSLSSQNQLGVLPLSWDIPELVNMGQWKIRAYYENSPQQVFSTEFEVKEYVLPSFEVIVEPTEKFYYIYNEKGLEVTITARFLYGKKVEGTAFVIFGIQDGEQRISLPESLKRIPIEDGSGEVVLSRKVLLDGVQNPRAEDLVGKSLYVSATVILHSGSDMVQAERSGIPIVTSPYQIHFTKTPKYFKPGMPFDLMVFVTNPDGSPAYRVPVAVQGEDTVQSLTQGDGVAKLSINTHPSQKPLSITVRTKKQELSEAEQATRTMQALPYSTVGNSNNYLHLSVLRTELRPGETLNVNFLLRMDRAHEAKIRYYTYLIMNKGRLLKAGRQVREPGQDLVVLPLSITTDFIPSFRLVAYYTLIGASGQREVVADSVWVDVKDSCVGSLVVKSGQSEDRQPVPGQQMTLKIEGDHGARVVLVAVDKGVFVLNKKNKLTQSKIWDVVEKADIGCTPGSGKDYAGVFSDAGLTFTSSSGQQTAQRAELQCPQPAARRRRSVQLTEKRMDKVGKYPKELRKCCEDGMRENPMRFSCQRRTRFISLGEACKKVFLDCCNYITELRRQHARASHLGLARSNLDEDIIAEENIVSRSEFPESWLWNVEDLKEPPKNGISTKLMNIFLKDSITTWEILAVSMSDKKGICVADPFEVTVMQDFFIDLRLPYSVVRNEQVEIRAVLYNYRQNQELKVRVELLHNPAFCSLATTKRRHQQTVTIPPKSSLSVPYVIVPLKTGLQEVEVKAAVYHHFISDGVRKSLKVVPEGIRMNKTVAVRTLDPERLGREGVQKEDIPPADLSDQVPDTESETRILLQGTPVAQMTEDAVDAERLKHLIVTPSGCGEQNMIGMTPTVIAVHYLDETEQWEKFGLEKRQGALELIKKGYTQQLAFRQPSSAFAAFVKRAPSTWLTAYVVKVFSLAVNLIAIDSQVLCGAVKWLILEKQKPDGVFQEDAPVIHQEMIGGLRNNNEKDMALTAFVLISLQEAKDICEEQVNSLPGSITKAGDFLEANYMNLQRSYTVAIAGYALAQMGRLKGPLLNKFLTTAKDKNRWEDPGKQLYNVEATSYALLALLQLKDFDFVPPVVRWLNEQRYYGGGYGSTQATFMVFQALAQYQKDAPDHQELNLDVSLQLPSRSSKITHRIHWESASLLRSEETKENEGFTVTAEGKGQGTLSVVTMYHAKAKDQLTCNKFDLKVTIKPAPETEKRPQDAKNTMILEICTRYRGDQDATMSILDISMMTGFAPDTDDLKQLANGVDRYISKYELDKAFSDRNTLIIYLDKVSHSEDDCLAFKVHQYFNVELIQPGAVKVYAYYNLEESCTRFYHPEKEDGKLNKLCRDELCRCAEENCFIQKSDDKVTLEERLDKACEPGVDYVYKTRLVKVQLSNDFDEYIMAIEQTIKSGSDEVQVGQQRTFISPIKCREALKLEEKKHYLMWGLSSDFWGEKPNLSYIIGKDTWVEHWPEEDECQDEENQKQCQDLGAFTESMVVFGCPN
Turning to Ac-ERICV[Nal]QDWG[Nal]HRCT-NH2 (disulfide 4-14; not fully specified; printed as Ac-ERICV{Nal}QDWG{Nal}HRCT-NH2) [Peptide 4.5, Ac-ER-ICV{Nal}QDWG{Nal}HRCT-NH2], the “C3b ELISA IC50” value worked out at 3.8 µM, the “C5b-9 ELISA IC50” value is 2.4 µM and the “Lysis IC50” value is 3 µM.

For the molecule Ac-NRLCVWQDWG[Nal]HRCT-NH2 (disulfide 4-14; not fully specified; printed as Ac-NR-LCVWQDWG{Nal}HRCT-NH2) [Peptide 4.3, Ac-NR-LCVWQDWG{Nal}HRCT-NH2], the “C3b ELISA IC50” value worked out at 2 µM, the “C5b-9 ELISA IC50” value is 1.2 µM and the “Lysis IC50” value was determined as 1.2 µM.

Take Ac-ICVWQDWG[Sea]HRCT-NH2 (disulfide 2-12; reading uncertain; also: printed as Ac-ICVWQDWG{Sea}HRCT-NH2) [Peptide 2.5, Ac-ICVWQDWG{Sea}HRCT-NH2]: the “C3b ELISA IC50” value turned out to be 0.6 µM, the “C5b-9 ELISA IC50” value worked out at 0.7 µM and the “Lysis IC50” value came out at 0.5 µM.

Take Ac-NNLCVWQDWG[Nal]HRCT-NH2 (disulfide 4-14; not fully specified; printed as Ac-NN-LCVWQDWG{Nal}HRCT-NH2) [Peptide 4.2, Ac-NN-LCVWQDWG{Nal}HRCT-NH2]: the “C3b ELISA IC50” value is 2.9 µM, the “C5b-9 ELISA IC50” value came to 1.9 µM and the “Lysis IC50” value turned out to be 2.1 µM.

As to Ac-NRLCV[Nal]QDWG[Nal]HRCT-NH2 (disulfide 4-14; not fully specified; printed as Ac-NRLCV{Nal}QDWG{Nal}HRCT-NH2) [Peptide 4.7, Ac-NR-LCV{Nal}QDWG{Nal}HRCT-NH2], the “C3b ELISA IC50” value worked out at 2.3 µM, the “C5b-9 ELISA IC50” value is 1.4 µM and the “Lysis IC50” value was 1.3 µM.

As to Ac-NNLCV[Nal]QDWG[Nal]HRCT-NH2 (disulfide 4-14; not fully specified; printed as Ac-NNLCV{Nal}QDWG{Nal}HRCT-NH2) [Peptide 4.6, Ac-NN-LCV{Nal}QDWG{Nal}HRCT-NH2], the “C3b ELISA IC50” value amounted to 3.9 µM, the “C5b-9 ELISA IC50” value is 2.3 µM and the “Lysis IC50” value was 2.2 µM.

As to Ac-RSICV[Nal]QDWG[Nal]HRCT-NH2 (disulfide 4-14; not fully specified; printed as Ac-RSICV{Nal}QDWG{Nal}HRCT-NH2) [Peptide 4.8, Ac-RS-ICV{Nal}QDWG{Nal}HRCT-NH2], the “C3b ELISA IC50” value was 4.1 µM, the “C5b-9 ELISA IC50” value was 2.4 µM and the “Lysis IC50” value was 2.8 µM.

B1: the “C3b ELISA IC50” value came to 0.6 µM, the “C5b-9 ELISA IC50” value was 0.5 µM and the “Lysis IC50” value came out at 0.3 µM.

In the case of B2, the “C3b ELISA IC50” value came out at 0.6 µM, the “C5b-9 ELISA IC50” value was 0.5 µM and the “Lysis IC50” value was found to be 0.3 µM.

Turning to Ac-ICVWQDWG[Aal]HRCT-NH2 (disulfide 2-12; reading uncertain; also: printed as Ac-ICVWQDWG{Aal}HRCT-NH2) [Peptide 2.4, Ac-ICVWQDWG{Aal}HRCT-NH2], the “C3b ELISA IC50” value amounted to 0.9 µM, the “C5b-9 ELISA IC50” value was found to be 0.8 µM and the “Lysis IC50” value was 0.7 µM.

For Ac-ERICVWQDWG[Nal]HRCT-NH2 (disulfide 4-14; not fully specified; printed as Ac-ER-ICVWQDWG{Nal}HRCT-NH2) [Peptide 4.1, Ac-ER-ICVWQDWG{Nal}HRCT-NH2], the “C3b ELISA IC50” value is 3 µM, the “C5b-9 ELISA IC50” value turned out to be 1.8 µM and the “Lysis IC50” value came out at 2.3 µM.

As to Ac-ICV[Trp(1-Me)]QDWG[Nal]HRCT-NH2 (disulfide 2-12; not fully specified; printed as Ac-ICV{meW}QDWG{Nal}HRCT-NH2) [Peptide 2.1, Ac-ICVmeWQDWG{Nal}HRCT-NH2], the “C3b ELISA IC50” value came out at 1.4 µM, the “C5b-9 ELISA IC50” value was found to be 0.9 µM and the “Lysis IC50” value came to 0.9 µM.

In the case of Ac-RSICVWQDWGAHRCT-NH2 (disulfide 4-14) [Peptide 3.4, Ac-RS-ICVWQDWGAHRCT-NH2], the “C3b ELISA IC50” value was 0.7 µM, the “C5b-9 ELISA IC50” value was 0.6 µM and the “Lysis IC50” value was 0.3 µM.

In the case of B3, the “C3b ELISA IC50” value is 0.9 µM, the “C5b-9 ELISA IC50” value was determined as 0.5 µM and the “Lysis IC50” value came out at 0.9 µM.

For Ac-ICVWQDWG[Nal]HRCT-NH2 (disulfide 2-12; not fully specified; printed as Ac-ICVWQDWG{Nal}HRCT-NH2) [Peptide 2.2, Ac-ICVWQDWG{Nal}HRCT-NH2], the “C3b ELISA IC50” value is 2.4 µM, the “C5b-9 ELISA IC50” value came out at 2 µM and the “Lysis IC50” value turned out to be 1.4 µM.

With Ac-RSICVWQDWG[Nal]HRCT-NH2 (disulfide 4-14; not fully specified; printed as Ac-RS-ICVWQDWG{Nal}HRCT-NH2) [Peptide 4.4, Ac-RS-ICVWQDWG{Nal}HRCT-NH2], the “C3b ELISA IC50” value was 3.1 µM, the “C5b-9 ELISA IC50” value worked out at 2 µM and the “Lysis IC50” value was found to be 1.8 µM.
